Experiment [1] deals with huPrP(23−144) (human) (UniProt P04156). The experiment in a line: NMR titration.
Experiment [2] shares this target. Kind of experiment: co-sedimentation.

“And” between values parts separate entries of the source, which are not always exact repeats. Equal values may be shown once.

On to “α-synuclein oligomers (from UniProt P37840 1-140) (complex)”, for which the stoichiometry N (αSyn:huPrP molar ratio) with huPrP(23−144) (human) [1] is 1.45 and 0.92. The stoichiometry N (αSyn:huPrP(23−144)) with huPrP(23−144) (human) [2] was found to be 0.96.

The values above are taken from publication PMC7347944.
